This experiment deals with T1, human CD20 (human, UniProt P11836 1-297).
T1 construct: whole, on cells; also called human CD20 antigen; Bp35
T1 sequence (looked up): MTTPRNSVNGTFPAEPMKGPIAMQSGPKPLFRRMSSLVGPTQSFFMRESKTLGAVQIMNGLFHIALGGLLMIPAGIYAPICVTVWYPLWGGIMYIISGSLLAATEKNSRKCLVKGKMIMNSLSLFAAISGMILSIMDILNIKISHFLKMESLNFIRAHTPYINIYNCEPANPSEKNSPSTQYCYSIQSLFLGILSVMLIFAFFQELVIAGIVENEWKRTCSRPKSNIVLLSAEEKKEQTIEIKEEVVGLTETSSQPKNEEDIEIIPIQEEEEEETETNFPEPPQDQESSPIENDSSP
The experiment is described as follows: flow cytometry on Raji cells.

Experimental: 500.000 in 180 μl FACS buffer (PBS containing 2% FCS and 5 mM EDTA) were transferred to 5 ml polystyrene tubes and 20 ul 10 fold concentrated anti-CD20 antibody samples (1-5000 ng/ml final concentration) or PBS only were added and the tubes were incubated at 4° C. for 30 min. Subsequently, samples were washed twice with FACS buffer and pelleted at 300×g for 3 min. Supernatant was aspirated off and cells were taken up in 100 μl FACS buffer and 1 μl anti-Fc-specific F(ab′)₂—FITC fragments (Jackson Immuno Research Laboratories, USA) was added and the tubes were incubated at 4° C. for 30 min. Samples were washed twice with FACS buffer and taken up in 500 μl of FACS buffer containing 0.5 μg/ml PI for analysis by Flow Cytometry. Binding was determined by plotting the geometric mean fluorescence against the antibody concentrations.

B1: B-HH1 complexed with the humanized B-Ly1 light chain (KV1) (antibody, human IgG1, V domains shown)
VH: QVQLVQSGAEVKKPGSSVKVSCKASGYTFSYSWMSWVRQAPGQGLEWMGRIFPGDGDTDYAQKFQGRVTITADKSTSTAYMELSSLRSEDTAVYYCARNVFDGYWLVYWGQGTLVTVSS
VL: DIVMTQTPLSLPVTPGEPASISCRSSKSLLHSNGITYLYWYLQKPGQSPQLLIYQMSNLVSGVPDRFSGSGSGTDFTLKISRVEAEDVGVYYCAQNLELPYTFGGGTKVEIKR
notes: also called BHH1-KV1
As to B1, the binding result is reported as “binds”.

B2: BHL11-KV1 (antibody, human IgG1, V domains shown)
VH: QVQLVESGGGLVKPGGSLRLSCAASGFTFSYSWMNWVRQAPGKGLEWVGRIFPGDGDTDYNGKFKGRVTITADKSTSTAYMELSSLRSEDTAVYYCARNVFDGYWLVYWGQGTLVTVSS
VL: DIVMTQTPLSLPVTPGEPASISCRSSKSLLHSNGITYLYWYLQKPGQSPQLLIYQMSNLVSGVPDRFSGSGSGTDFTLKISRVEAEDVGVYYCAQNLELPYTFGGGTKVEIKR
notes: B-HL8 with the single mutation Glu1Gln
Consider B2, for which the binding result is “binds”.

B3: B-HH1 (as compared in FIG. 12; light chain not stated) (antibody, V domains shown)
VH: QVQLVQSGAEVKKPGSSVKVSCKASGYTFSYSWMSWVRQAPGQGLEWMGRIFPGDGDTDYAQKFQGRVTITADKSTSTAYMELSSLRSEDTAVYYCARNVFDGYWLVYWGQGTLVTVSS
VL: DIVMTQTPLSLPVTPGEPASISCRSSKSLLHSNGITYLYWYLQKPGQSPQLLIYQMSNLVSGVPDRFSGSGSGTDFTLKISRVEAEDVGVYYCAQNLELPYTFGGGTKVEIK
B3: the “binding intensity/stoichiometry compared to B-Ly1” value was ~0.5 fold of chB-Ly1.

B4: BHH2-KV1 humanized IgG1 B-Ly1 anti-human CD20 antibody (non-glycoengineered) (antibody, V domains shown)
VH: QVQLVQSGAEVKKPGSSVKVSCKASGYAFSYSWMNWVRQAPGQGLEWMGRIFPGDGDTDYNGKFKGRVTITADKSTSTAYMELSSLRSEDTAVYYCARNVFDGYWLVYWGQGTLVTVSS
VL: DIVMTQTPLSLPVTPGEPASISCRSSKSLLHSNGITYLYWYLQKPGQSPQLLIYQMSNLVSGVPDRFSGSGSGTDFTLKISRVEAEDVGVYYCAQNLELPYTFGGGTKVEIKR
notes: also called BHH2-KV1-wt
As to B4, the binding result is given as “binds”.

B5: BHL8-KV1 (antibody, human IgG1, V domains shown)
VH: EVQLVESGGGLVKPGGSLRLSCAASGFTFSYSWMNWVRQAPGKGLEWVGRIFPGDGDTDYNGKFKGRVTITADKSTSTAYMELSSLRSEDTAVYYCARNVFDGYWLVYWGQGTLVTVSS
VL: DIVMTQTPLSLPVTPGEPASISCRSSKSLLHSNGITYLYWYLQKPGQSPQLLIYQMSNLVSGVPDRFSGSGSGTDFTLKISRVEAEDVGVYYCAQNLELPYTFGGGTKVEIKR
B5: the binding result was “binds”.

B6: B-HH3 complexed with the humanized B-Ly1 light chain (KV1) (antibody, human IgG1, V domains shown)
VH: QVQLVQSGAEVKKPGSSVKVSCKASGYAFSYSWMNWVRQAPGQGLEWMGRIFPGDGDTDYNGKFKGRVTITADKSTSTAYMELSSLRSEDTAVYLCARNVFDGYWLVYWGQGTLVTVSS
VL: DIVMTQTPLSLPVTPGEPASISCRSSKSLLHSNGITYLYWYLQKPGQSPQLLIYQMSNLVSGVPDRFSGSGSGTDFTLKISRVEAEDVGVYYCAQNLELPYTFGGGTKVEIKR
notes: also called BHH3-KV1
Take B6: the binding result was “binds”.

B7: chimeric B-Ly1 antibody chB-Ly1 (antibody, V domains shown)
VH: EVKLQQSGPELVKPGASVKISCKASGYAFSYSWMNWVKLRPGQGLEWIGRIFPGDGDTDYNGKFKGKATLTADKSSNTAYMQLTSLTSVDSAVYLCARNVFDGYWLVYWGQGTLVTVSA
VL: DIVLTQTTNPVTLGTSASISCRSSKSLLHSNGITYLYWYLQKPGQSPQLLIYQMSNLVSGVPDRFSSSGSGTDFTLRISRVEAEDVGVYYCAQNLELPYTFGGGTKLEIKR
notes: also called parental antibody B-Ly1; copies: 2 + 2
For B7, the binding result is reported as “binds”.

Source of the values: patent US20050123546A1 (Hoffmann-La Roche, published 2005).
